test: soluble fraction after stress (log2 fold change); higher = more stays soluble; pooled small domains, quantitative proteomics; settings: stress: 50 degC
How it was run: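 The stress applied to every library was 50°C. These custom libraries of small protein domains were pooled and measured at high throughput with quantitative proteomics as the read-out. Aggregation propensity is expressed as the base-two logarithm of the fold change in how much of each protein remains soluble. The higher the value, the more of that protein stays in solution.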

Sequence	soluble fraction (log2)
HMNKLSISALAETVSTKRKEKSMTQQDLSDATGINRALISRLEQKDFIPSIPQLEKLEEILGFELEEVF	-0.0428
HMRVTEIDYGAFMKMIEEKNIGEVKVEDYEIVFTDKDNKNIYKTGIMDDPDLTQRLYNSGAVFA	0.0247
HMIISPKKLEYRQRIINALGDRKMSLNELSKAMGYKGITTKLSFTVDDMIKSGVIEKVMVGAYAKLHIP	-1.65
HMKKEETEAEELEEKFTSAQIKQAYGILNDPRYKQGNYSGAVNVINKIAPGLADHPDVKNALKRANEEL	0.0375
HMNEIALETAIEDVESFIQMQNRNLAFSIDEDTDRAVVTVRDSDSGDVIRQIPSEEVLALAERIQDLQQD	0.136
HMRTPTGVQAYLSSGLIKGIGEKTAAAIVDKFGTDALSVIETDPERLLEIPGITPNKLREILESYNQH	0.141
HMPSLNDRPDDVLYLFSYFLQSFSHRQVSLPKILKKALIQHDWWGNIRELHSVALRYYIFGDTLNGAYDSL	-1.3
HMGLLLSQLDKDYQRYIDLADSTFRDNQLAVSRGWYNRALGVKAAEKYPKDQIAEIEKKIAERM	-0.181
HMLEASVYTAEKSGDRLDAFLAEQAGITRSYAQKLIEGGQVTLGGVVPKKNYKLSAGEQVELILPEN	0.0254
HMTNEPRLTNMGFNKMLIENYKMILEYQDFFIRISTQIGIININGFDLKLGEMTADEVLVTGKIESIDL	0.53
HMDLDIRDDIYRANIPNDYKLQQMQNNIDYDKVLTGYYNNRPEANVIANRTLQLANDVYNRD	-0.0187
HMFERFIFTDEVYIRLKKSGLPQTTLRPLLEIHGKSFDHNEINIILSGLIPNQDFERYAQIIKSHSRF	-3.82
HMSYTYPVARLNHIKGKWYVLVSVPAHLRHLFPNQRDLRRSTGTDDESLAKRKQHALAQEIYDLFD	-0.468
HMQEDKVRKLTEMGFAEDQAREALRKHDWDETMALNSL	0.199
HMFPELDEEEQKITKLLQAQNDLPANIIAVKTALNIGTTQAKLFSLEMKGVVKPYAGGFYHLL	-0.25
HMIMQTTSDRINQRMRDLGLQHKDLVAATGASKGTVTNWINGVNNPTGKRLVQLAQALKTTSSWLLTGN	-0.12
HMSKQDRRIRRTRRLLKESLIQLMQEKEFMNISVREVTERADLNRGTFYLHYQDTRHLLQDIENETL	-3.25
HMEELTDSELNNLYRELFIARSNASDGVGIIEQKTIKGITYRLSNDNNYLIKELGNKEYIYKNGVWEEYT	0.0711
HMDTHRLNYSDFVAEVQAQRVSKVVIDGYTIVGQRTNGETFETVRPALQDPKLVDDLLQNNVIIEGKQPE	0.0106
HMNKMHKLPSVSEILNKVRLQKIHNESFIKFKIKEEIDRYRKLAKKDQLFLSRDEITYEIIEKLLNFSMPS	-2.57
HMEKERYDTGIGELNRVLGGGLVKGSLILISGDPGIGKSTLLLQTANNISKKYGKVLYVSGEESEEQIKIR	-0.319
HMRHSLAAALTELRRLAALDLGDFFRFEYVSHTDSLGGKQQAYTEGIRVSFGVYLGVNKKDRLNVDPVV	-3.44
HMTQFSASSERAGAGGAYRTTLRAMEQNGDLLQISILLPDAVTAKHAATVWPERAQAIYTAILSELLK	-0.446
HMENSMDTDWDVSGVDPSQYRLLFSTLGAIAGVKDVGLNPDGLKIIHTPEALPAIKQAFDANNLKLKMRTN	0.163
HMDTPPGLSPEEQAIIDIITTRGDATINELTASIDIPTPRLMGMLVDMEFRSLIAAIPGGRYRI	-1.16
HMSSWAEGLTERERHTLMWITKGLSNKLIARELGISDSTVKVYVKNLLRKLNVNSRLELAAWVHTHPL	-0.906

Sequence	soluble fraction (log2)
HMAGLKERLFYFIEYKGLTVQSFEKTVGLSNGAVSKMGDNTRRSTIDKISNFFGDLNKNWLLTGEGEMLI	-0.99
HMKQQNFADLAGRFVFNADNEVVFNFGKHKNVPVATVLKNEPGYYGWMMGGDFPLFTKKILKQIKEA	-0.847
HMAWIAVATKEDYSEYEWKELSPTTDWSTQTFDLGDLAGKTIYAVKMFFDHDTDVKDYKFNLGQLSITSN	-0.266
HMQLYSLEVLSKKKVDLIENNKNLINLYFNKENGEYSYRLIFKNRKELYQVKDTLDNSSDVVSIKLDL	-0.863
HMGKREKTKVANRQAILVAARAVFAELGYEAATVRDIIRGTDLASGTFYNYFKSKEEVFDALADDGA	-1.17
HMSETLESYTTRLKQLEEIADSFQGVDKTFAIQAGREIRVMVVPEQISDDDMILLARDISNQIEENLDY	-0.122
HMSSDEDELESIIKRVFADNPIELERLQNGEDKLIKFFMGLVMRQTKGKYPPKIIIDLLNKS	-0.411
HMRTVAERYGLTAGQWRVLELLTQGKTNRQIAEMLDVTEGTVKIHVSAIFKAMKVTNRTQALLLAKKH	-0.558
HMETGFADTLRKFRKEADMTQEKLAEALGVTTGAVYKWENGRSTPEVRLLVEMADLFGTSVDALLDYKVR	-0.622
HMKPLIIPLELMQRLSSDKQLEAGFNRFSKSKQHEFAAYIAAAKRVETKVKRLEKIIPLILSGEGLNDR	-1.36
HMGNTLAYSEFRQKVQEGAVKQVVLSEDRVTGELTNGDRFTANIVRDPELLKMLNDNNVKYDGKPT	0.203
HMGGHLAYGFSRRFGLLIDEQQGEPVIIARPDYSPVHYAEARRIVGQPAALRVVDEQAFNQLLQSQQESGA	-0.346
HMDDFNLSPREKDVLGHLVKGNSYKMIADELQIGYDTVHSHIKKIYKKLHVNSMSEAVAKALKNKL	0.543
HMYELDIYPNPAIDKINVLLPSSTTLPVKVEIYDIMGKKVNSLLTTKKAFTIETDQFEKGIYFVKA	0.0213
HMSNGYVTAKTTVNVRKSASESGERLGVIYQGDKLELVMNQADGWTKVKYKGQTAYVKSEFM	-0.6
HMAIDLSLIPGNLLRELHGAVEDGDMYRIRELIRSISAVDEKVGKELLLLAERYDYERLLELVND	-0.384
HMEESTYQWNNFVRDFYASRVSAQYTNKLKVAAILWHHVKNTPQSKIYHDNLVSKYAEEINYFK	-2.51
HMDAEEISILLEKAVLQLPEKQKMIFQLKYFEDLSYKDIQIITGGSIGGLKANYHHAVTKIEKLLS	-0.0727
HMTGRVKWYDATKGFGFVTSDEGGDVFLPKGALPAGVADLKTGQRIEFGVVDSRKGAQALGVK	0.337
HMSDKPRYYINGNTLFISDKSVKKVLFSDLSGRSILHTTETAINIATFRGAHILTVIYTDGSTKSEVIF	-1.29
HMGVPTEQEIGKRILAWRKLRGMTLQQLADKAGVGLTTIHNLETGLWYAKMPTYLYIAEALGVSLDALIYG	-1.42
HMGRDWKTDLLNLATARGWGDVSYEVTGEGPDHARVYTAVAIVANQKTGTGVGPSKKEAERLAAEQAYRML	-0.142
HMKNYYELLGVAREASQDQIKKAYRKLARKYHPDVSKEADAETRMQELNVAYDTLSDAEKKREYDFQLDHP	0.00768
HMPQEMIEILATPNGWLRVRQGPGTNYPEITKVNSGEEFPLLEEKDSWFKIRIEEGQEGWISSQYAQKEE	-0.0402
HMRQGHLDLLRQIHALPPSTREVVYLRAFGGLSFREIGDVLGRTETWARVTFYRGKEALRKG	0.0194
HMFEEPYLATYPVLIDPKLAFNVLDTMLEGLEVKMDQDEETGAISVLAPASIHTKITEYLDALSKQ	-0.159

Sequence	soluble fraction (log2)
HMTDIDATSIERAVAKRRHFFLSNIQDLTMKMARRLIEKDLGLAPKHLDAAPFKTRITELVDAVIALGD	-0.165
HMSQDTLIENGKVFLIHKVVAGQTLYGLSKAYNITIEDIIKYNPQAENGIKIGEDIKIFLKEE	-0.432
HMQNVKIKAEVKGEVISPGVYELDEESRIQDLIDASGGFSDKAYYDNINLSMKLKDEMVLVVYDKDKI	-0.163
HMQDTRSHARKMLAAIEALLEGRSGSDIQAYTIHNRSITKMTVPELVKWRSYYQQQVRSEDAAASLA	-0.129
HMTSAHEKAFDLFDGGKLSEKALLIAVGAERSGFELAGDLRLRTLTAFEDGRLSEDAMIKLL	-0.385
HMEIEIPEELQNKFAEIPELKTAFESLTPGRQRAYVLYFSQPKQSKTREARIEKYIPHILDGKGMN	0.111
HMTMRFVVADGQNFGSIAQSKALEAVKKGNTEFNYKDVDYTVDIQSDDFYVVYQGRDIMGYASR	-2
HMATTIEAPMPGKILDVKVNPGQAVSYGQVVLTMEAMKMETEIVAPADGTVASVLVKSGDMVETGAALVSL	0.0867
HMEIVSTEEKIKRAAEQVFLLRGLEGARMQEIADVAGINKAMLHYYFRNKETLFDVILSEKL	-1.51
HMSRVTVDVNPDVLQWAIDKKGKGDIKNKFPKIDEWLNGISKPTIHQLENFAKYVSVPFGYLLLSKPPVE	0.276
HMQYYITKIANYDQVSPNLLVRTAEGQYMVKTNADILDTDVTKLTEEEIRKDWGYLFENGFSELV	-0.814
HMGSNATIKYAIKGDESLVQVAQKFNVTVSELRSWNNISAFENAKTGQELVINVPASKYETYFALANT	0.22
HMSALAEELIKKNQAMILTIKPRDTIWGIANRFQSPPSEKFINQIIELNQVDPYRLRIGQDLLIPLN	-0.584
HMTGIVVVDVVGQVGRPGLVSLPAGSRVADAITAAGGATPEADVSLLNQARLVIDGEQIRVPRPGEVIAA	-0.0367
HMDMSDFEVVRDMYLTGKVWNAGDIVEAKGITGEVVRKGTNYLSFVDKNGKVHKAWLHEIEL	-0.188
HMAVIILDEPTLGLDPAVRISLWQAIQSARDSTMSAFLITTHYIKEVADYLSAVKILDHGREVASGNPSAL	-0.302
HMLPIKLDLEIGENVRVVSGPLENFVGSVVSFDTDQQKVKLVVEMFGRKTPVELDFIEVQKLR	-0.435
HMGVSDDMARGVVRARQFLSDFAAVPLDRMTPAEAVARARQLKSELETDAKHSPWLLDVLSNA	-0.0848
HMASVLTGMLGRVTGELAPKGIVMVGNETWTAVSEDDSVIRIGEPVEVRSVEGLILTVFRRID	-2.53
HMPGEATVPSVIGMTKAEAKAKLQASGFELGYSEFVASDKPKGEIVEQDPGAGETAKGGTEVNVKISDGS	-0.0145
HMIAPQISSGKVNTKELNVRSGPATTFGIVKKLPLNAMVGIFEEKNGWFRIATGQWVSKTYVDL	-1.5
HMDWREMTAWMAELLKRRTGDDVETWNARVRESGAHDEASLRAWLTEQGVTGYAQTLLVMERFGYPDFF	-1.22
HMNQTPQISYSQFIADVRSGQIKDVNIDSDNRTIVGHKFSGEEFTTFSPGDNKLVDELLNYNVEIKTSP	0.411
HMELPPLQPGQPIDGRVEQQIRAGYYVVSVRGRGYEFQLPESARPGDLLRMVYLNDHPRLTFALLRIDNAN	-0.98

Reference: the domain aggregation screens of Martell et al. (2025)
